Test results reported in the RNAGym collection of RNA variant scans (doi:10.1073/pnas.2313332121).

B1: TPR t1 (parent)
chain: GACCAAUCUGCCCUCAGAGCUCGAGAACAUCUUCGGAUGCAGAGGAGGCAGGCUUCGGUGGCGCGAUAGCGCCAACGUCCUCAACCUCCAAUGCAUCCCACCACAUGAUGAUGCCUGAAGAGCCUUGGUUUUUUG

Variants of: B1
Assay: polymerase ribozyme fitness, log enrichment relative to wild type (log ratio); higher = more active; in vitro selection for triplet polymerase activity
In short: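 Each subunit of a heterodimeric triplet polymerase ribozyme was represented by a PCR-built, transcribed mutant library that underwent triplicate single-round in vitro selection with frozen incubation at −7 °C. Extended constructs were recovered by gel excision, streptavidin-bead capture and RT-PCR, and Illumina sequencing of input and output libraries kept genotypes with ≥10 input reads and ≥1 read per output. Fitness is the logarithm of genotype enrichment relative to wild-type enrichment, from inverse-variance-weighted replicate averages, with a logarithm base of 2.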

Variant | polymerase ribozyme fitness (log ratio)
GACCAAUCUGCCCUCAGAGCUCGAGAACAUCUUCGGAUGCAGAGGAGGCAGGCUUCGGUGGCGCGAUAGCGCCAACGUCCUCAACCUCCAAAGCAUCCCACCACAUGAUGAUGCCUGAAGGGCCUUGGUUUUUUG [U92A A121G] | -0.696
GACCAAUCUGCCCUCAGAGCUCGAGAACAUCUUCGGAUGCAGAGGAGGCAGGCUUCGGUGGCGCGAUAGCGCCAACGUCCUCAACCUCCAAUGCAUCGCACCACAUGAUGAUGCCUGAAGAGCCUUGGUUUUUUU [C98G G135U] | -6.54
GACCAAUCUGCCCUCAGAGCGCGAGAACAUCUUCGGAUGCAGAGGAGGCAGGCUUCGGUGGCGCGAUAGCGCAAACGUCCUCAACCUCCAAUGAAUCCCACCACAUGAUGAUGCCUGAAGAGCCUUGGUUUUUUG [U21G C73A C94A] | -2.37
GACCAAUAUGCCCUCAGAGCUCGAGAACAUCUUCGGAUGCAGACGAGGCAGGCUUCGGUGGCGCGAUAGCGCCAACGUCCUCAACCUCCAAUGCAUCCCACCACAGGAUGAUGCCUGAAGAGCCUUGGUUUUUUG [C8A G44C U106G] | -1.03
GACCAAUCUGCCCUCAGAGCUCGAGAACAUCUUCGGAUGCUGAGGAGGGAGGCUUCGGUGGCGCGAUAGCGCCAACGUCCUCAACCUCCAAUGCAUCCCACCACAUGAUGAUGCCUGAAGAGCCUUGGUUUUUUG [A41U C49G] | -2.03
GACCAAUCUGCCCUCAGAGCUCGAGAACAUCUUCGGAUGCAGAGGAGGCAGGCUUCGGUCGCGCGAUAGCGCCAACGUCCUCAACCUCCAAUGCGUCCCACCACAUGAUGAUGCCUGAAAAGCCUUGGUCUUUUG [G60C A95G G120A U130C] | 0.59
GGCCAAUCUGACCUCAGAGCUCGAGAACAUCUUCGGAUGCAGAGGAGGCAGGCUUCGGUGGCGCGAUAGCUCCAACGUCCUCAACCUCCUAUGCAUCCCACCACAUGAUGAUGCCUGAAGAGCCUUGGUAUUGUG [A2G C11A G71U A90U U130A U133G] | -2.92
GACCAAUCUGCCCUCAGAGCUCGAGAACAUCUUCGGAUGCAGAGGAGGGAGGCUUCCCUGGCUCGAUAGCGCCAACGUCCUCAACCUCCAAUGCAUCCCACCACAUGAUGAUGCCUGAAGAGCCUUGGUUUUUUG [C49G G57C G58C G63U] | -3.06
GACCAAUCUGCCCUCAGAGCUCGAGAACCUCUUCGGAUGCAGAGGAGGCAGGCUUCGGUGGCGCGAUAGCGCCAACGUCCUCAACCUCCAAUGCAUCCCACCACAUGAUGAUGCCUGAAGAGCGUUGGUUUUUUG [A29C C124G] | -0.564
GACCAAUCUGCCCUCAGAGCUCGAGAACAUCUUCGGAUGCAGAGGAGGCAGGCUUCGGUGGCGCGAUAGCGCCAACGUCCUCAACCUCCAAUGAAUCCCACCAAAUGAUGAUGCCUGAAGAGUCUUGGUUUUUUG [C94A C104A C123U] | -1.42
GACCAAUCUGCCCUCAGAGCUCGAGAACAUCUUCGGAUGCAGAGGAGGCAGGCUUCGGUGGCGCGAUAGCGCCAACGUCCUCAACCUCCAAUGCAUCCCACCACAAGAUGAUGCCUUAAGAGCCUUGGUUUUUUG [U106A G117U] | -2.19
GACCAAUCUGCCCUCAGAGCUCGAGAACAUCUUCGGAUGCAGAGGAGGCAGGCUUCGGUGGCGCGAUAGCGCCAACGUCCUCAACCUCCAAUGCAUCCCACCACAUGACGAUGCCUGAAGAGCAUUGGUUUUUUG [U109C C124A] | -1.7
GACCAAUCUGCCCUCAGAGCUCGAGAACAUCUUCGGAUGCAGAGGAGGCAGGCUUCGGUGGCGCGAUAGCGCCAACGUCCUCAUCCUCCAAUGCAUCCCACCACAUGAUGAAGCCUGAAGAGCCUUGUUUUUUUG [A84U U112A G128U] | -1.28
GACCAAUCUGCCCUCAGAGCUCGAGAACAUCUUCGGAUGCUGAGGAGGCAGGCUUCGGUGCCGCGAUAGCGCCAACGUCCUCAACCUCCAAUGCAUCCCACCACAUGAUGAUGCAUAAAGAGCCUUGGUUUUUUG [A41U G61C C115A G117A] | -5.8
GACCAAUCUGCCCUCAGAGCUCGAGAACAUCUUCGGAUGCAGAGGAGGCAGACUUCGGUGGCGCGAUAGCGCCAACGUUCUCAACCUCCAAUGCAUCCCACCACAUGAUGAUGCCUGAAGAGCCUUGGUUUUUUG [G52A C79U] | -0.581
GACCAAUCUGCCCUCAGAGCUCGAGAACAUCUUCGGAUGCAGAGGAUGCAGGCUUCGGUGGCGCGAUAGCGCCAACGUCCUCAACGUCCAAUGCAUCCCACCACAUGAUGAUGCCUGAAGAGCCUUGGUUUUUUG [G47U C86G] | -0.954
GACCAAUCUGCCCUCAGAUCUCGAGAACAUCUUCGGAUGCAGAGGAGGCAGGCUUCGGUGGUGCGAUAGCGCCAACGUCCUCAACCUCCAAUGCAUCCCACCACAUGAUGAUGCCUGAAGAGCCUUGGUUUUUUG [G19U C62U] | -3.18
GACCAAUCUGCCCUCAGAGCUCGAGAACAUCUUCGGAUGCAGAGGAGGCAGGCUUCGGUGGCGCGAUAGCGCCAACGUCCUCAACCUCCAAUGCAUCCCACCACAUGAUGUUACCUGAAGAGCCUUGGUGUUUUG [A111U G113A U130G] | -5.85
GACCAAUCUGCCCUCAGAGCUCGAGAACAUCUUCGGAUGCAGAGGAGGCAGGCUUCGGUGGCGCGAUAGCGCCAACAUCCUCAACCUCCAAGGAAUCCGACCACAUGAUGCUGCCUGAAGAGCCUUGGUUUUUUG [G77A U92G C94A C99G A111C] | -8.36
GACCAAUCUGCCCUCAGAGCUCGAGAACAUCUUCGGAUGCAGAGGAGGCAGGCUUCGGUGGCGCGAUAGCGCCAACGUCCUCAGCCUCCAACGCAUCCCACCACAGGAUGAUCCCUGAAGAGCCUUGGUUUUUUG [A84G U92C U106G G113C] | -4.32
GACCAAUCUGCCCUCAUAGCUCGAGAACAUCUUCGGAAGCAGAGGAGGCAGGCUUCGGUGGCGCGAUAGCCCCAACGUCCUCAACCUCCAAUGCAUCCCACCACAUGAUGAUGCCUGAAGAGCCAUGGUUUUUUG [G17U U38A G71C U125A] | -4.76
